In patent US20240101645A1 (HENRY M JACKSON FOUNDATION FOR THE ADVANCEMENT OF MILITARY …, published 2024):

Key:
[1] = target: T1, HCoV-NL63 spike antigens (bead panel) (HCoV-NL63, UniProt Q6Q1S2 19-1296); assay: multiplex bead assay
T1 sequence: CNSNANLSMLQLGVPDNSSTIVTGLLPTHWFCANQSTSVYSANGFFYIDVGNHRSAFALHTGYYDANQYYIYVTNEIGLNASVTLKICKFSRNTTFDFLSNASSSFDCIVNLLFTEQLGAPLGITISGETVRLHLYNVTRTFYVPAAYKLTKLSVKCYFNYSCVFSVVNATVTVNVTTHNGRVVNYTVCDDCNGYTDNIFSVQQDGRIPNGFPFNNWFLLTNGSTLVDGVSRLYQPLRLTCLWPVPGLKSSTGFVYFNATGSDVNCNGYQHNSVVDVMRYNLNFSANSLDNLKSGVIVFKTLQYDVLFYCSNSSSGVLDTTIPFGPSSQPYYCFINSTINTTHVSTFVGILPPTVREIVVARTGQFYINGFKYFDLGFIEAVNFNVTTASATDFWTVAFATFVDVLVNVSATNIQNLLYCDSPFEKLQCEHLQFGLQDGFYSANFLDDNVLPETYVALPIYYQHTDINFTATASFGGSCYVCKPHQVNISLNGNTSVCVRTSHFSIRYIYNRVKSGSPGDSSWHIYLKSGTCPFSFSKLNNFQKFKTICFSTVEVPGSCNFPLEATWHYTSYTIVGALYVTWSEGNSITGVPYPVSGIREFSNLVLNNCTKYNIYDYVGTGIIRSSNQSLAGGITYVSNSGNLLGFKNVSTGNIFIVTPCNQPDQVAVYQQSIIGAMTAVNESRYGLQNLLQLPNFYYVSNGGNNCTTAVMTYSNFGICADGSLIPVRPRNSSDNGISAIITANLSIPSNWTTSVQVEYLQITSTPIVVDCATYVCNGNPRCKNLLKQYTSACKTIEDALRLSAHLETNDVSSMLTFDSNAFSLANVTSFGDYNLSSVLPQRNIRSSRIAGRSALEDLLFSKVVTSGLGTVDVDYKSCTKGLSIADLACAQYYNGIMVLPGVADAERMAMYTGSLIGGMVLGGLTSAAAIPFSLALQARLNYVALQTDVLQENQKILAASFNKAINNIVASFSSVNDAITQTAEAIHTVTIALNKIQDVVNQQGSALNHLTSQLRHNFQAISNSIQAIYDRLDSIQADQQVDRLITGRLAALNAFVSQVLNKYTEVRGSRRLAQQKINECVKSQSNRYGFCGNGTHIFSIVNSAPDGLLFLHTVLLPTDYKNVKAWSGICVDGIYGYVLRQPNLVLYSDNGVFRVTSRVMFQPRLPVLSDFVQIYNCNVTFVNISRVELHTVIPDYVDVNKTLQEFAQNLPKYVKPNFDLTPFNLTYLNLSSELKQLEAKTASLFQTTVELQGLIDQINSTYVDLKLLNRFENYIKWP

[2] = target: T2, HCoV-HKU1 spike antigens (bead panel) (HCoV-HKU1, UniProt Q5MQD0 13-1300); assay: multiplex bead assay
T2 sequence: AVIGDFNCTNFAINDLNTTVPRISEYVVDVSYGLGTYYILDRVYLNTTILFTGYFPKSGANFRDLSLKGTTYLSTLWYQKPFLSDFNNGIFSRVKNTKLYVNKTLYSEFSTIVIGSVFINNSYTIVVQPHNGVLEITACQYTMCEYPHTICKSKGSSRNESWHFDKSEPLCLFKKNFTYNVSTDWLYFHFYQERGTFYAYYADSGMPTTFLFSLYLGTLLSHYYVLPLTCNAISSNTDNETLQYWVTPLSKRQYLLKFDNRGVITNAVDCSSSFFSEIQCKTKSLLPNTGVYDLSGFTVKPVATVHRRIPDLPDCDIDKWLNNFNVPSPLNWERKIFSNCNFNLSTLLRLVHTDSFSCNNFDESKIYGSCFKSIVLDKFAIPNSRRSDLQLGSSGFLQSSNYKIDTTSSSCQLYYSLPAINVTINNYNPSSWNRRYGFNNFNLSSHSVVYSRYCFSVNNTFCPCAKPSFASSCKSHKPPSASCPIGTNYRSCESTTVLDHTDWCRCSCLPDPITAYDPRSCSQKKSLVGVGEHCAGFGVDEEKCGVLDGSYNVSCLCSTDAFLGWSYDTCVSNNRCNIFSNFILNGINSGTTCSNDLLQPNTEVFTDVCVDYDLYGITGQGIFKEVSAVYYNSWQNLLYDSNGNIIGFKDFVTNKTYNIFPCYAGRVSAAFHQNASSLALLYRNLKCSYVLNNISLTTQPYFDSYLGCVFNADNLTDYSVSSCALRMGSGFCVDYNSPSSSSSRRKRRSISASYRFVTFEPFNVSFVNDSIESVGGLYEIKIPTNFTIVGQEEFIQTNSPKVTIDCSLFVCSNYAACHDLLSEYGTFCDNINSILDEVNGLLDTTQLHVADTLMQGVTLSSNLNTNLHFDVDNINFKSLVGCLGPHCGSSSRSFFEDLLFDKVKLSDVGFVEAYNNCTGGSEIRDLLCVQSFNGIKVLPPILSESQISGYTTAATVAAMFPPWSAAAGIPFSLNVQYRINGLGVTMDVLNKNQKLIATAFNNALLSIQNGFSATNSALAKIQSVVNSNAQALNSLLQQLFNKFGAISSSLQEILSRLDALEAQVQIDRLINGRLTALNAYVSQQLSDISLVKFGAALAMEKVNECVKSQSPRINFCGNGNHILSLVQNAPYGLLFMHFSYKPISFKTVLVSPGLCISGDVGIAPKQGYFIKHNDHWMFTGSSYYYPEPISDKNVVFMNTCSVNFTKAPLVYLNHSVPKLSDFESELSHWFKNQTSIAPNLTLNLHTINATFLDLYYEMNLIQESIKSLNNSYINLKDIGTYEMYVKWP

B1: COV_1170 (antibody, V domains shown)
VH: QVQLVESGGGVVQPGRSLRLSCAASGFTFSTYAMHWVRQAPGKGLEWVALISYDGSNKYYADSVKGRFTISRDNSKNTLDLQMNSLRAEDTAVYYCARSLGGYRTGFDYWGQGTLVTVSS
VL: DIQLTQSPSFLSASVGDRVTITCRASQGISSYLAWYQQKPGKAPKLLIYAASTLQSGVPSRFSGSGSGTEFTLTISSLQPEDFATYYCQQLNSYPPFTFGPGTKVDIKR
notes: human IgG1
[1]
  binding result: no binding
[2]
  binding result: no binding

B2: COV_2035 (antibody, V domains shown)
VH: QVQLVQSGAEVKKPGASVKVSCKVSGYTLPELSIHWVRQAPGKGLEWLGGFDPEDGKIIYAQKFQGRVTMTEDTSTDTAYMELSSLRSEDTAVYYCATSPAVVERGWFDPWGQGTLVTVSS
VL: QSALTQPPSASGSPGQSVTISCTGTSSDVGGYNYVSWYQQHPGKAPKLMIYEVSKRPSGVPDRFSGSKSGNMASLTVSGLQAEDEANYYCSSYAGSKRVFGGGTKLTVL
notes: human IgG1
[1]
  binding result: no binding

B3: COV_2048 (antibody, V domains shown)
VH: QVQLQESGPGLVKPSETLSLTCTVSGGSISNTSYYWGWIRQPPGKGLEWIGSIYRSGSTYYNPSLKSRVTISIDTSKNQFTLKLSSVTAADTAVYYCARDYYGDYSAKPMEYWGQGTLVTVSS
VL: QSALTQPRSVSGSPGQSVTISCTGTSSDVGGYNYVSWYQQHPGKAPKLLIYDVSKRPSGVPDRFSGSKSGNTASLTISGLQAEDEADYYCCSYAGSYVVFGGGAKLTVLG
notes: human IgG1
[1]
  binding result: no binding
[2]
  binding result: no binding

B4: COV_1144 (antibody, V domains shown)
VH: EVQLVESGGGLVQPGGSLRLSCAASGFTFRSFWMSWVRQAPGKGLEWVANIKEDASEKHYVDPVKGRFTISRDNAKNSLYLQLNSLRAEDMAVYYCARVGRGYCTNGLCYTAFEYWGQGTLVTVSS
VL: DIQMTQSPSSLSASVGDRVTITCRTSQSISNYLNWYQQKPGKAPKLLIYAASSLQSGVPSRFSGSGSGTDFTLTISSLQPEDFATYYCQQSYSTAWTFGQGTKVEIRR
notes: human IgG1
[1]
  binding result: no binding
[2]
  binding result: no binding

B5: COV_2077 (antibody, V domains shown)
VH: QVQLQESGPGLVKPSETLSLTCTVSGGSISSYSWSWIRQPPGKGLEWIGYIYYSGSTNYNPSLKSRVTISVDTSKNQFSLKLSSVTAADTAVYYCARESMGRYSLELRQPESAFDYWGRGTLVTVSS
VL: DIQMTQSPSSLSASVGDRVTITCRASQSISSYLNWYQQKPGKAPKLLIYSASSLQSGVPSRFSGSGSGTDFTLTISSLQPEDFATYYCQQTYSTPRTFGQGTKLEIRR
notes: human IgG1
[1]
  binding result: no binding
[2]
  binding result: no binding

B6: COV_1201 (antibody, V domains shown)
VH: QVQLVQSGAEVKKPGASMKVSCKASGYTFTGYYIHWVRQAPGQGLEWMGRINPNSGGTNYAQKFQGRVTMTRDTSISTAYMELSRLRSDDTAVYYCAREYYYVPYGMDVWGQGTTVTVSS
VL: QSALTQPASVSGSPGQSITISCTGTSSDVGGYNFVSWYQHHPGKAPKLMIYEVSNRPSGVSNRFSGSKSGNTASLTISGLQAEDEADYYCSSYTSSSTYVFGTGTKVTVL
notes: human IgG1
[1]
  binding result: no binding
[2]
  binding result: no binding

B7: COV_1166 (antibody, V domains shown)
VH: EVQLVESGGGLVQPGGSLRLSCAVSGFTFRSFWMSWVRQTPGKGLEWVANIKEDGSEKYYVDSVKGRFTISRDNAKNSLYLQMNSLRAEDTAVYYCAREGRWELLGFAFDIWGQGTMVTVSS
VL: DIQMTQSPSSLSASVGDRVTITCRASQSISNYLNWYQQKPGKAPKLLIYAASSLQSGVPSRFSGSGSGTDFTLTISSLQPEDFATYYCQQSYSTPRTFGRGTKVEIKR
notes: human IgG1
[1]
  binding result: no binding
[2]
  binding result: no binding

B8: COV_1151 (antibody, V domains shown)
VH: QVQVQQWGAGLLKPSETLSLTCAVYGGSFNNYYWSWIRQPPGKGLEWIGEINHSGSTNYNPSLMSRVTISVDTSKNQFSLKLTSVTAADTAVYFCARGLPVTTFFSSYYGMDVWGQGTTVTVSS
VL: EIVLTQSPGTLSLSPGERATLSCRASQSVSRTYLAWYQQKPGQAPRLLIYGASSRATGIPDRFSGSGSGTDFTLTISRLEPEDFAVYYCQHYGSSPWTFGQGTKVEIRR
notes: human IgG1
[1]
  binding result: no binding
[2]
  binding result: no binding

B9: COV_2056 (SEQ ID NO:792/797) (antibody, V domains shown)
VH: EVQLVESGGGVVQPGRSLRLSCAASGFTFSIYGMHWVRQAPGKGLEWVALISYDGTNKYYADSVKGRFSISRDDSKNTLYLQMNSLRPEDTAVYYCAKVLMMGDSSGFSLGDAFDIWGQGTMVTVSS
VL: DIQMTQSPSSVSASVGDRVTITCRASQGISNWLAWYQQKPGKAPKLLIYAASSLQSGVPSRFSGSVSGTDFTLTISSLQPEDFATYYCQQANSFPLTFGGGTKVDIKR
[1]
  binding result: no binding
[2]
  binding result: no binding

B10: COV_2004 (antibody, V domains shown)
VH: QVQLVQSGAEVKKPGASVKVSCKASGYTFTGYYMHWVRQAPGQGLEWMGRINPSSGGTNYAQKFQGRVTMTRDTSISTAYMELSSLRSDDTAVYYCATDGDDGENWFDPWGQGTLVIVSS
VL: DIQMTQSPSSLSASVGDRVTITCRASQGISSWLAWYQQKPEKAPKSLIYAASSLQSGVPSRFSGSGSGTDFTLTISSLQPEDFATYYCQQYNSYPYTFGQGTKLEIK
notes: human IgG1
[1]
  binding result: no binding
[2]
  binding result: no binding

B11: COV_1149 (antibody, V domains shown)
VH: QVQLVESGGGVVQPGRSLRLSCAASGFTFSSYGMHWVRQAPGKGLEWVAVISYDGSNKYYADSVKGRFTISRDNSKNTLYLQMNSLRAEDTAVYYCAKTGGGYSYGLGNVWGQGTLVTVSS
VL: QSALTQPASVSGSPGQSITISCTGTSSDVGGYNYVSWYQQHPGKAPKLMIYDVSNRPSGVSNRFSGSKSGNTASLTISGLQAEDEADYYCSSYTSSSTLVVFGGGTKLTVLG
notes: human IgG1
[1]
  binding result: no binding
[2]
  binding result: no binding

B12: COV_1172 (antibody, V domains shown)
VH: QVQLQESGPGLVKPSETLSLTCTVSGGSIRSYYWSWIRQPPGKGLEWIGYIYYSGSTNYSPSLKSRVTISVDTSKNQFSLKLNSVTAADTAVYYCARRGLGYCSGDSCSNAFDIWGQGTMVTVSS
VL: DIQMTQSPSSLSASVGDRVTITCRASQSISSYLNWYQQKPGRAPELLIYDASSLQSGVPSGFSGSGSGTDFTLTISSLQPEDFATYYCQQSYSTPFTFGPGTKVDIKR
notes: human IgG1
[1]
  binding result: no binding
[2]
  binding result: no binding

B13: COV_2008 (antibody, V domains shown)
VH: QVRVVQSGAEVKNPGASVKVSCKVSGYTLTELSIHWVRQAPGNGLEWMGGFDPEDGETIYAQKFQGRVTMTEDTSTDTAYMELSSLRSDDTAVYYCATAGAITGTPRNFYYYYGMDVWGQGTTVTVSS
VL: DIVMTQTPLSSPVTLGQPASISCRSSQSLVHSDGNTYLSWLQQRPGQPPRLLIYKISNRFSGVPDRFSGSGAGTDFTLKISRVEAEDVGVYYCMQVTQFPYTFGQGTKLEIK
notes: human IgG1
[1]
  binding result: no binding
[2]
  binding result: no binding
